Test results published in US20150191542A1 (INNATE PHARMA S A, published 2015).
Changes are numbered by the printed parent chain.

T1: MICA*008 expressed on C1R transfectant cells (human, UniProt Q29983 24-297, Glycosylated on cells; the letters do not carry this.)
T1 construct: also called C1R-MICA*008; C1R-MICA*08
T1 chain: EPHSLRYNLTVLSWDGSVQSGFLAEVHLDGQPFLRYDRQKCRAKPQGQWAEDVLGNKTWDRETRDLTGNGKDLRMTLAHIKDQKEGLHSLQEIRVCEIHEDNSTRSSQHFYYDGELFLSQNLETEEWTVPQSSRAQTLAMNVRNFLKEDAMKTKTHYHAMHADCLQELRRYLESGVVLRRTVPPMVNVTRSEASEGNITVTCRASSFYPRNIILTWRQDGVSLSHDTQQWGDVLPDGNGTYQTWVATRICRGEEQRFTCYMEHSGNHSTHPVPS

T2: ULBP2-Fc protein (UniProt Q9BZM5 26-217, limits assumed)
T2 construct: also called ULPB2; not shown: Fc part
T2 sequence (looked up): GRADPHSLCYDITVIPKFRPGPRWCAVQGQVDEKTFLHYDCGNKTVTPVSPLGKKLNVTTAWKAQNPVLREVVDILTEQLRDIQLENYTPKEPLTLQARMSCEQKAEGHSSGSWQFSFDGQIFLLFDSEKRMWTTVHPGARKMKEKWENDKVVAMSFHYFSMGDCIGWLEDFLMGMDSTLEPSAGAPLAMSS

T3: ULBP1-Fc protein (UniProt Q9BZM6 26-216, limits assumed)
T3 construct: also called ULPB1; not shown: Fc part
T3 sequence (looked up): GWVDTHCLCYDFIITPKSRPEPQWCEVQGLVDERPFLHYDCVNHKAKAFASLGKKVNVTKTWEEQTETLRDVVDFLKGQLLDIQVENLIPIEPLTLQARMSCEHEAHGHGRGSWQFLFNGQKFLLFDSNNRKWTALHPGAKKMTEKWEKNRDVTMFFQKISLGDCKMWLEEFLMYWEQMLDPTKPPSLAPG

T4: recombinant human MICA extracellular domain recombinant-Fc protein (MICA*019 allele) (human, UniProt Q29983 24-297)
T4 construct: Bought from R&D Systems; also called MICA*019-Fc; MICA-Fc; not shown: Fc part of the bought fusion protein (R&D Systems)
T4 chain: T1 chain with G175S

T5: MICA*001 expressed on transfected cells (human)
T5 construct: the cells carry the complete allele; also called C1R-MICA*001; C1R-MICA*01
T5 chain: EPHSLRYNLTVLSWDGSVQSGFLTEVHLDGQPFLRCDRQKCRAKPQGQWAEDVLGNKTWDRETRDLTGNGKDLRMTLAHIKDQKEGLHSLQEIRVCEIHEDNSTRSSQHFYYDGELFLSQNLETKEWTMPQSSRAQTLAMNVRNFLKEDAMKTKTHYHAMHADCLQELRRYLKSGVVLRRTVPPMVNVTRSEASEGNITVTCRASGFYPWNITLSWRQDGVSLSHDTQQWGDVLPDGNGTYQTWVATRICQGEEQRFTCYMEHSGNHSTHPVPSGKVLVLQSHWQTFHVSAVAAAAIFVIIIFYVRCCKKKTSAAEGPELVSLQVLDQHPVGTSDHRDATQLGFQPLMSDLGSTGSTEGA

B1: antibody 9C10 (antibody, V domains shown)
VH: QVQLQQPGAELVRPGTSVNLSCKASGYSFTRYWMNWVKQRPGQGLEWIGMIHPSDSETRLNQKFKDKATLTVDKSSSTAYMQLSSPTSEDSAVYYCGYGNFFYVMDYWGQGTSVTVSS
VL: DILLTQSPAILSVSPGERVSFSCRASQSIGTSIHWYQQRTNGSPRLLIKFASESISGIPSRFSGSGSGTDFTLNINSVESEDIADYYCQQSNFWPFTFGSGTKLEVK
modifications: Biotinylated when captured in the SPR assays (9C10-Biot); the sites are not given.
notes: Murine hybridoma antibody of IgG2b isotype as tested; also called 9C10-Biot
B2: antibody 16A8 (antibody, V domains shown)
VH: EVQLVESGGGLVKPGGSLKLSCAASGFTFSRYAMSWVRQTPEKRLEWVATIFSGGSYTYYPDSVKGRFTISRDNANNTLYLQMSSLKAEDTAMYFCARPNWERTFDYWGQGTTLTVSS
VL: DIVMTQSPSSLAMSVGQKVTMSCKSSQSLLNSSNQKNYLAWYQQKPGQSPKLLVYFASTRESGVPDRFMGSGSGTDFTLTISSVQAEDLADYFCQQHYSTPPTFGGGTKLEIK
notes: Murine hybridoma antibody of IgG2a isotype as tested; also called 16A8-Biot

Key:
[1] = target: T1, MICA*008 expressed on C1R transfectant …; test: flow cytometry on C1R-MICA*008 cells, 3-parameter logistic fit
Method: (§1) The binding of antibodies obtained from the first and second immunization series (including 9C10, 20C6 and 16A8) were tested for binding to MICA-expressing CR1 transfectant cells C1R-MICA*001, C1R-MICA*004, C1R-MICA*007 and C1R-MICA*008 (Pr. A. Steinle, Eberhard-Karls University Tuebingen, Germany) described in Salih et al. (2003) Blood 102(4): […]. Binding was analyzed by flow cytometry.
(§2) Cells were harvested and stained in PBS 1×/BSA 0,2%/EDTA 2 mM buffer during 30 minutes at 4° C. using a dose-range of the anti-MICA mAbs. After two washes in staining buffer, cells were stained for 30 min at 4° C. with goat anti-mouse (H+L)-PE polyclonal antibodies (1/200). After two washes, stainings were acquired on a BD FACS Canto II and analyzed using the FlowJo software.
Antibodies 9C10, 20C6 and 16A8 bound to each of the C1R-MICA*001, C1R-MICA*004, C1R-MICA*007 and C1R-MICA*008 cells (see FIGS. 3A, 3B and 3C for antibodies 9C10, 20C6 and 16A8 respectively). […] EC50 values are shown in Table C in μg/ml (calculated using a 3-parameter logistic fit).

ULBP2-Fc protein = target: T2, ULBP2-Fc protein; test: SPR Biacore T100, biotinylated antibody captured on CAP chip, Fc protein injected
Method: (§3) The binding of 9C10, 20C6 and 16A8 to either recombinant human MICA extracellular domain recombinant protein monomers or dimers (MICA*019 allele-Fc protein or MICA*001-His protein) as well as other NKG2D ligands MICB and ULBP1-2 was analyzed by Surface Plasmon Resonance (SPR) using a Biacore T100 apparatus to obtain monovalent and bivalent affinity, respectively. Biotinylated anti-MICA antibodies were injected at a constant rate of 10 μl/min over the Sensor Chip CAP flow-cells comprising Biotin CAPture Reagent. MICA-Fc or MICA-His protein, MICB-Fc, ULBP1-Fc or ULBP2-Fc protein is then injected successively (range of concentrations between 0.01-100 nM), with regeneration between injections, and in increasing order over two flowcells simultaneously. Curves are fitted using Biacore T100 Evaluation software.
(§4) (a) General Biacore T100 methods. SPR measurements were performed on a Biacore T100 apparatus (Biacore GE Healthcare) at 25° C. In all Biacore experiments HBS-EP+ buffer (Biacore GE Healthcare) or 10 mM sodium acetate pH 7.4, 150 mM NaCl, 0.05% P20 served as running buffer and sensorgrams were analyzed with Biaevaluation 4.1 and Biacore T100 Evaluation software. Recombinant human and mouse TLR3 were purchased from R&D Systems.

ULBP1-Fc protein = target: T3, ULBP1-Fc protein; test: as above
Method: as §3, §4

[2] = target: T4, recombinant human MICA extracellular …; test: SPR Biacore T100, biotinylated antibody captured on CAP chip, MICA protein injected
Method: as §3, §4

[3] = target: T5, MICA*001 expressed on transfected cells; test: flow cytometry, MFI against antibody concentration on C1R-MICA*01 cells
Method: as §1, §2

| Binder | EC50 [1] [µg/mL] | binding result (ULBP2-Fc protein) | binding result (ULBP1-Fc protein) | binding result [2] | EC50 (read off the curve) [3] [µg/mL] |
| --- | --- | --- | --- | --- | --- |
| B1 | 0.15 | no binding (tested: 0.01-100 nM) | no binding (tested: 0.01-100 nM) | – | – |
| B2 | 0.33 | – | – | binds | ~0.3 |
